Tests used:
[1] = DHB dehydrogenase activity of cytosolic enzymes (DHB-dependent reduction of NAD+); type: biochemical
Method: Activity of the cytosolic DHB dehydrogenases (Ec-Mdh, Bs-Mdh, Ll-LdhA) was assayed by following the DHB-dependent reduction of NAD^+.
The reaction mixture contained 60 mM Hepes (pH 8), 50 mM potassium chloride, 5 mM MgCl2, 10 mM NAD, (optionally, 5 mM fructose-1,6-bisphosphate (F16bP)) (all products from Sigma), and appropriate amounts of purified enzyme or cell extract. Reactions were started by adding 50 mM (L)-2,4-dihydroxybutyrate (Rhodia).
All enzymatic assays were carried out at 37° C. in 96-well flat bottomed microtiter plates in a final volume of 250 μL. The reactions were followed by the characteristic absorption of NADH at 340 nm (εNADH=6.22 mM^−1 cm^−1) or the absorbtion of DCIP at 655 nm (εDCIP=5.9 mM^−1 cm^−1) in a microplate reader (BioRad 680XR).

[2] = Malate dehydrogenase activity (natural substrate); type: biochemical; details: for Max. specific activity, malate: activity measured at 50 mM malate
[3] = activity measured at 50 mM DHB, Table 4

| Molecule | Max. specific activity, DHB [1, 3] [µmol/mg/min] | Max. specific activity, malate ([2]; Table 4) [µmol/mg/min] | also measured |
| --- | --- | --- | --- |
| Ec-Mdh: (L)-malate dehydrogenase of Escherichia coli, wild-type, SEQ ID No. 124 (protein, listed as Escherichia coli) MKVAVLGAAGGIGQALALLLKTQLPSGSELSLYDIAPVTPGVAVDLSHIPTAVKIKGFSGEDATPALEGADVVLISAGVARKPGMDRSDLFNVNAGIVKNLVQQVAKTCPKACIGIITNPVNTTVAIAAEVLKKAGVYDKNKLFGVTTLDIIRSNTFVAELKGKQPGEVEVPVIGGHSGVTILPLLSQVPGVSFTEQEVADLTKRIQNAGTEVVEAKAGGGSATLSMGQAAARFGLSLVRALQGEQGVVECAYVEGDGQYARFFSQPLLLGKNGVEERKSIGTLSAFEQNALEGMLDTLKKDIALGEEFVNK |  |  | DHB dehydrogenase activity (in words) ([1]; cytosolic wild-type enzymes): no measurable DHB dehydrogenase activity; Max. specific activity, DHB ([1]; when not saturated, activity estimated at 50 mM substrate, Table 2): 0 µmol/mg/min; Max. specific activity, Natural substrate ([2]; natural substrate (L)-malate, Table 2): 52.5 µmol/mg/min |
| Ec-MdhR81A M85E I12V: E. coli malate dehydrogenase mutant R81A M85E I12V, SEQ ID No. 166 (protein, listed as Escherichia coli) MKVAVLGAAGGVGQALALLLKTQLPSGSELSLYDIAPVTPGVAVDLSHIPTAVKIKGFSGEDATPALEGADVVLISAGVAAKPGEDRSDLFNVNAGIVKNLVQQVAKTCPKACIGIITNPVNTTVAIAAEVLKKAGVYDKNKLFGVTTLDIIRSNTFVAELKGKQPGEVEVPVIGGHSGVTILPLLSQVPGVSFTEQEVADLTKRIQNAGTEVVEAKAGGGSATLSMGQAAARFGLSLVRALQGEQGVVECAYVEGDGQYARFFSQPLLLGKNGVEERKSIGTLSAFEQNALEGMLDTLKKDIALGEEFVNK | 10.3 | 0.91 |  |
| Ec-MdhR81A M85Q I12V: E. coli malate dehydrogenase mutant R81A M85Q I12V, SEQ ID No. 164 (protein, listed as Escherichia coli) MKVAVLGAAGGVGQALALLLKTQLPSGSELSLYDIAPVTPGVAVDLSHIPTAVKIKGFSGEDATPALEGADVVLISAGVAAKPGQDRSDLFNVNAGIVKNLVQQVAKTCPKACIGIITNPVNTTVAIAAEVLKKAGVYDKNKLFGVTTLDIIRSNTFVAELKGKQPGEVEVPVIGGHSGVTILPLLSQVPGVSFTEQEVADLTKRIQNAGTEVVEAKAGGGSATLSMGQAAARFGLSLVRALQGEQGVVECAYVEGDGQYARFFSQPLLLGKNGVEERKSIGTLSAFEQNALEGMLDTLKKDIALGEEFVNK | 7.1 | 0.98 |  |
| Ec-MdhR81A I12V: E. coli malate dehydrogenase mutant R81A I12V, SEQ ID No. 162 (protein, listed as Escherichia coli) MKVAVLGAAGGVGQALALLLKTQLPSGSELSLYDIAPVTPGVAVDLSHIPTAVKIKGFSGEDATPALEGADVVLISAGVAAKPGMDRSDLFNVNAGIVKNLVQQVAKTCPKACIGIITNPVNTTVAIAAEVLKKAGVYDKNKLFGVTTLDIIRSNTFVAELKGKQPGEVEVPVIGGHSGVTILPLLSQVPGVSFTEQEVADLTKRIQNAGTEVVEAKAGGGSATLSMGQAAARFGLSLVRALQGEQGVVECAYVEGDGQYARFFSQPLLLGKNGVEERKSIGTLSAFEQNALEGMLDTLKKDIALGEEFVNK | 2.5 | 0.66 |  |
| Ec-MdhR81A M85Q: E. coli malate dehydrogenase mutant R81A M85Q, SEQ ID No. 158 (protein, listed as Escherichia coli) MKVAVLGAAGGIGQALALLLKTQLPSGSELSLYDIAPVTPGVAVDLSHIPTAVKIKGFSGEDATPALEGADVVLISAGVAAKPGQDRSDLFNVNAGIVKNLVQQVAKTCPKACIGIITNPVNTTVAIAAEVLKKAGVYDKNKLFGVTTLDIIRSNTFVAELKGKQPGEVEVPVIGGHSGVTILPLLSQVPGVSFTEQEVADLTKRIQNAGTEVVEAKAGGGSATLSMGQAAARFGLSLVRALQGEQGVVECAYVEGDGQYARFFSQPLLLGKNGVEERKSIGTLSAFEQNALEGMLDTLKKDIALGEEFVNK | 2.98 | 0.57 |  |
| Ec-MdhR81A G179D: E. coli malate dehydrogenase mutant R81A G179D, SEQ ID No. 168 (protein, listed as Escherichia coli) MKVAVLGAAGGIGQALALLLKTQLPSGSELSLYDIAPVTPGVAVDLSHIPTAVKIKGFSGEDATPALEGADVVLISAGVAAKPGMDRSDLFNVNAGIVKNLVQQVAKTCPKACIGIITNPVNTTVAIAAEVLKKAGVYDKNKLFGVTTLDIIRSNTFVAELKGKQPGEVEVPVIGGHSDVTILPLLSQVPGVSFTEQEVADLTKRIQNAGTEVVEAKAGGGSATLSMGQAAARFGLSLVRALQGEQGVVECAYVEGDGQYARFFSQPLLLGKNGVEERKSIGTLSAFEQNALEGMLDTLKKDIALGEEFVNK | 2.1 | 0.52 |  |
| Ec-MdhR81A: E. coli malate dehydrogenase mutant R81A, SEQ ID No. 156 (protein, listed as Escherichia coli) MKVAVLGAAGGIGQALALLLKTQLPSGSELSLYDIAPVTPGVAVDLSHIPTAVKIKGFSGEDATPALEGADVVLISAGVAAKPGMDRSDLFNVNAGIVKNLVQQVAKTCPKACIGIITNPVNTTVAIAAEVLKKAGVYDKNKLFGVTTLDIIRSNTFVAELKGKQPGEVEVPVIGGHSGVTILPLLSQVPGVSFTEQEVADLTKRIQNAGTEVVEAKAGGGSATLSMGQAAARFGLSLVRALQGEQGVVECAYVEGDGQYARFFSQPLLLGKNGVEERKSIGTLSAFEQNALEGMLDTLKKDIALGEEFVNK | 0.3 | 0.12 |  |
| Ec-MdhR81A D86S: E. coli malate dehydrogenase mutant R81A D86S, SEQ ID No. 170 (protein, listed as Escherichia coli) MKVAVLGAAGGIGQALALLLKTQLPSGSELSLYDIAPVTPGVAVDLSHIPTAVKIKGFSGEDATPALEGADVVLISAGVAAKPGMSRSDLFNVNAGIVKNLVQQVAKTCPKACIGIITNPVNTTVAIAAEVLKKAGVYDKNKLFGVTTLDIIRSNTFVAELKGKQPGEVEVPVIGGHSGVTILPLLSQVPGVSFTEQEVADLTKRIQNAGTEVVEAKAGGGSATLSMGQAAARFGLSLVRALQGEQGVVECAYVEGDGQYARFFSQPLLLGKNGVEERKSIGTLSAFEQNALEGMLDTLKKDIALGEEFVNK | 0.79 | 0.42 |  |
| Ec-MdhR81A M85E: E. coli malate dehydrogenase mutant R81A M85E, SEQ ID No 160 (protein, listed as Escherichia coli) MKVAVLGAAGGIGQALALLLKTQLPSGSELSLYDIAPVTPGVAVDLSHIPTAVKIKGFSGEDATPALEGADVVLISAGVAAKPGEDRSDLFNVNAGIVKNLVQQVAKTCPKACIGIITNPVNTTVAIAAEVLKKAGVYDKNKLFGVTTLDIIRSNTFVAELKGKQPGEVEVPVIGGHSGVTILPLLSQVPGVSFTEQEVADLTKRIQNAGTEVVEAKAGGGSATLSMGQAAARFGLSLVRALQGEQGVVECAYVEGDGQYARFFSQPLLLGKNGVEERKSIGTLSAFEQNALEGMLDTLKKDIALGEEFVNK | 2.38 | 0.65 |  |
| Ec-MdhR81A D865 G179D: E. coli malate dehydrogenase mutant R81A D86S G179D (printed D865), SEQ ID No 172 (protein, listed as Escherichia coli) MKVAVLGAAGGIGQALALLLKTQLPSGSELSLYDIAPVTPGVAVDLSHIPTAVKIKGFSGEDATPALEGADVVLISAGVAAKPGMSRSDLFNVNAGIVKNLVQQVAKTCPKACIGIITNPVNTTVAIAAEVLKKAGVYDKNKLFGVTTLDIIRSNTFVAELKGKQPGEVEVPVIGGHSDVTILPLLSQVPGVSFTEQEVADLTKRIQNAGTEVVEAKAGGGSATLSMGQAAARFGLSLVRALQGEQGVVECAYVEGDGQYARFFSQPLLLGKNGVEERKSIGTLSAFEQNALEGMLDTLKKDIALGEEFVNK | 2.51 | 0.64 | Km ([1]; ns = not saturated at concentrations of up to 100 mM, Table 4): 25 mM; Km ([2]; read-out: Km, malate, Table 4): 4 mM |
| Bs-MdhR87C: B. subtilis malate dehydrogenase mutant R87C, SEQ ID No. 154 (protein, listed as Bacillus subtilis) MGNTRKKVSVIGAGFTGATTAFLIAQKELADVVLVDIPQLENPTKGKALDMLEASPVQGFDAKITGTSNYEDTAGSDIVVITAGIACKPGMSRDDLVSTNEKIMRSVTQEIVKYSPDSIIVVLTNPVDAMTYAVYKESGFPKERVIGQSGVLDTARFRTFVAEELNLSVKDVTGFVLGGHGDDMVPLVRYSYAGGIPLETLIPKERIDAIVERTRKGGGEIVNLLGNGSAYYAPAASLTEMVEAILKDQRRVLPTIAYLEGEYGYEGIYLGVPTIVGGNGLEQIIELELTDYERAQLNKSVESVKNVMKVLS | 0.06 | 0.13 | maximum activity on DHB ([1]; text of Example 2): 0.06 µmol/mg/min; activity on malate ([2]; text of Example 2): 0.13 µmol/mg/min |

— US9605283B2, “Microorganism modified for the production of 1,3-propanediol” (INSTITUT NATIONAL DES SCIENCES APPLIQUÉES, priority 2012, dated 2017)
